Experimental data: patent US20030124602

System: Flag epitope tagged CTMPs (F.CTMPs; CTMP starting at the natural ATG of the cDNA)
Sequence (chain, as listed by the source): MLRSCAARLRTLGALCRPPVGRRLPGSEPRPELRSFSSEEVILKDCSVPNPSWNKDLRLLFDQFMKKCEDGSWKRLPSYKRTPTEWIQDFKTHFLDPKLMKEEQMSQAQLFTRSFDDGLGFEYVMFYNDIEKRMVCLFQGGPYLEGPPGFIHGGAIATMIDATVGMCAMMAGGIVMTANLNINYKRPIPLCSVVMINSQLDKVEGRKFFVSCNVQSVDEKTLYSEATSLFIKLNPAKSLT

For “HA epitope-tagged PKB alpha (HA-PKBα, pCMV5-HA-PKBα)”, the “phosphorylation of PKB on Thr 308 and Ser 473, Western blot with phospho-specific antibodies” value was “CTMP expression leads to a reduction of phosphorylation on both residues but most notably on the S473 site”.
